For data set [1], the system named is humanized ANGPTL4 mice. The data set can be described thus: Serum TG, H4H268P2 and fenofibrate alone or in combination. The class given is in vivo, mouse. As for the experimental part: The effects of the anti-ANGPTL4 antibody H4H268P2 and TG-reducing drug fenofibrate, each alone or in combination, on serum TG levels were evaluated in humanized ANGPTL4 mice. The mice were pre-bled 7 days before the experiment after 4 hours of fasting and put into 4 groups of six mice each. Groups 2 and 4 were administered with H4H268P2 at 10 mg/kg by subcutaneous injection on day 0 and groups 1 (control group) and 2 were placed on regular chow diet. Groups 3 and 4 received chow diet supplemented with 0.05% (w/w) of fenofibrate (the dosage level was determined experimentally in a pilot study). Serum was collected from a terminal bleed on day 7 after H4H268P2 and/or fenofibrate administration (after 4 hours of fasting) and analyzed by ADVIA® 1800 Chemistry System (Siemens).

Data set [2] addresses T1, hANGPTL4(26-406)-His (Homo sapiens, UniProt Q9BY76).
T1 construct: purchased R&D Systems
T1 sequence (Q9BY76 26-406): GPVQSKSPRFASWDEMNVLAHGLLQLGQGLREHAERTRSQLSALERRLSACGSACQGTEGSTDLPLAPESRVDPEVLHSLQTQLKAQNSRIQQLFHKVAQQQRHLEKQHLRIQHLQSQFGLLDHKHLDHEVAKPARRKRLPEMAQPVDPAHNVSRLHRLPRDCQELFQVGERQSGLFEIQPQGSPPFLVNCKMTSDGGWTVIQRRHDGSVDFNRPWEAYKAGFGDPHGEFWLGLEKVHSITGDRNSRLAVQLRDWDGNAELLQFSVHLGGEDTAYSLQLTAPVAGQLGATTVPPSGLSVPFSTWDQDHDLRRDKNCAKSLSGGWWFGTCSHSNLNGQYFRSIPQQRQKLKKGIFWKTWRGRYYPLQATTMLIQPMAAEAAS
Description: BIACORE, full mAb or Fab over amino-coupled hANGPTL4(26-406)-His. It counts as binding. The note with it: for RU bound at 50 nM mAb or Fab: amino-coupled 450 RU. On the procedure:
(§1) Briefly, various concentrations (3.125 nM-100 nM) of anti-hANGPTL4 antibodies (i.e., H1H268 Fab, entire H1H268 mAb, H1H284 Fab, and entire H1H284 mAb) were injected over a low density anti-mFc captured hANGPTL4(26-148)-mFc (˜68±4 RU) surface, or the surface of amino-coupled hANGPTL4(26-406)-His (R&D Systems) (450 RU) or amino-coupled cynomolgus monkey N-terminal region (amino acid residues 1-130 of SEQ ID NO:490) expressed with an C-terminal hexa-histidine tag (MfANGPTL4(1-130)-His) (1,028 RU). Kinetic analysis was performed to measure ka and kd, and KD values and half-life of antigen/antibody complex dissociation were calculated. The results are shown in Table 4 (H1H268P) and Table 5 (H1H284P).

For data set [3], the target named is T2, hANGPTL4(26-148)-mFc (Homo sapiens, UniProt Q9BY76).
T2 construct: amino acid residues 26-148 of human ANGPTL4 fused in-line to mouse IgG2a (hANGPTL4-mFc)
Description: BIACORE, full mAb or Fab over anti-mFc captured hANGPTL4(26-148)-mFc. It counts as binding. In general terms: Surface plasmon resonance follows binding to a sensor surface in real time, without labels.

For data set [4], the target named is T2, hANGPTL4(26-148)-mFc. The description is as above. The class given is binding. As for the experimental part:
as §1
This is another data set of the same source.

Data set [5] deals with MfANGPTL4(1-130)-His. Description: BIACORE, full mAb or Fab over amino-coupled MfANGPTL4(1-130)-His. The settings on record: for Response bound at 50 nM mAb or Fab: amino-coupled 1,028 RU. The class given is binding, cynomolgus monkey. On the procedure: as §1
The subject of data set [6] is C57BL/6 mice given hANGPTL4-mFc. The class given is in vivo. The note with it: antibody 5 mg/kg s.c.; 24 h later hANGPTL4-mFc 25 μg/mouse i.v.; bled 30 min after; mean±SEM. As for the experimental part: In another set of experiments, selected anti-hANGPTL4 antibodies were tested for their ability to inhibit hANGPTL4-induced increase of triglyceride levels. Measurements of total cholesterol, LDL, NEFA-C and HDL were also made. Briefly, C57BL/6 mice were put into groups of five mice each for each antibody tested. Antibodies were administered at 5 mg/kg dose by subcutaneous injection. Control group I, i.e., mice that received neither anti-hANGPTL4 antibodies nor hANGPTL4, were administered with PBS. Twenty-four hours post-injection of antibody, hANGPTL4-mFc (SEQ ID NO:480) was administered (i.v.) at a dose of 25 μg/mouse to each antibody group. Mice were bled at 30 min after hANGPTL4-mFc injection and lipid levels were determined by ADVIA® 1650 Chemistry System (Siemens). Averages were calculated for each of the measurements of triglycerides, total cholesterol (Total-C), LDL, NEFA-C and HDL for each antibody or control group. Levels of circulating anti-hANGPTL4 antibodies (Serum Ab) were also determined using a standard ELISA assay. Briefly, plates were coated with a goat anti-human Fc antibody (Sigma-Aldrich) to capture Serum Ab. Serum was then added to the plates and captured anti-hANGPTL4 antibodies were detected by chemiluminescence using a horseradish peroxidase (HRP) conjugated goat anti-human IgG antibody (Sigma-Aldrich). Control I: Mice that received PBS, but neither anti-hANGPTL4 antibodies nor hANGPTL4-mFc. Control II: Mice that received a human antibody specific for CD20 (i.e., the mAb having the sequence of 2F2 clone disclosed in US 2008/0260641) and hANGPTL4-mFc.

For data set [7], the system named is C57BL/6 mice. Description: In vivo effect of hANGPTL4-mFc on plasma lipid levels. Also on record: species or system mouse. On the procedure:
hANGPTL4 was administered intravenously to C57BL/6 mice to determine the biological effect of hANGPTL4 on plasma lipid levels. Briefly, C57BL/6 mice were put into four groups of five animals and each group was administered with different amount of hANGPTL4-mFc protein (SEQ ID NO:480): 25 μg, 50 μg, 100 μg and 300 μg, per mouse. A control group received injections of PBS. hANGPTL4-mFc protein and PBS were administered by intravenous injection (i.v.) via tail vein. Mice were bled at 15 min, 30 min, 60 min and 120 min after delivery of hANGPTL4-mFc or PBS and plasma lipid levels were determined by ADVIA® 1650 Chemistry System (Siemens). Measurements of triglycerides, total cholesterol, low density lipoprotein (LDL), nonesterified fatty acids (NEFA-C) and high density lipoprotein (HDL) were determined for each dose group. […] Thus, the 25 μg dose of hANGPTL4-mFc was selected as a possible minimum dosage for analysis of inhibition of ANGPTL4-induced increase in serum triglyceride levels by selected anti-hANGPTL4 antibodies as described below.

Setting [8] is: pH 5.75, 25° C., antigen captured 27 ± 0.6 RU.
[9] abbreviates: pH 7.2, 25° C., antigen captured 35 ± 1.9 RU.

The source of these data is patent US9120851B2, “Human antibodies to human angiopoietin-like protein 4” (Regeneron Pharmaceuticals, Inc., priority 2009, dated 2015).

MfANGPTL4(1-130)-His, sequence (as listed by the source): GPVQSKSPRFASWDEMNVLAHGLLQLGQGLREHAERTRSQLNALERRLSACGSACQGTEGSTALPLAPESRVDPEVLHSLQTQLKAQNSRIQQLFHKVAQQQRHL

Consider `CC(C)OC(=O)C(C)(C)Oc1ccc(C(=O)c2ccc(Cl)cc2)cc1` [fenofibrate], for which the “TG levels reduced (mean) compared to control group on chow diet” value in data set [1] (day 7, H4H268P2 10 mg/kg s.c. day 0, fenofibrate 0.05% (w/w) in chow) is about 25%. Besides, the “liver enlargement (liver weight/body weight) compared to control chow diet” value in data set [1] (mice that consumed fenofibrate for 7 days (groups 3 and 4)) was determined as 1.8 times.

B1: H1H284P Fab: Fab fragment of H1H284P prepared by papain digestion (antibody, V domains shown)
VH: QVQLVESGGGVVQPGRSLRLSCAASGFTFSSYGMHWVRQAPGKGLEWMAVISFDGGNKNNADSVKGRFTISRDNSKNTLYLQMNSLRAEDTAVYYCAKEGDRSGHPYFYYYGLDVWGQGTTVTVS
VL: DIQLTQSPSFLSASVGDRVTITCWASQGISSYLAWYQQKPGKAPKLLIYAASTLQSGVPSRFSGSGSETEFTLTISSLQPEDFATYYCQQLHSYPLTFGGGTKVEIK
For B1, the ka in data set [2] (pH 5.75, 25° C.) is 1.21e+06 M⁻¹ s⁻¹; in data set [2] (pH 7.2, 25° C.) it was 1.11e+06 M⁻¹ s⁻¹; in data set [4] (pH 5.75, 25° C.), 472000 M⁻¹ s⁻¹; in data set [4] (pH 7.2, 25° C.) it was 245000 M⁻¹ s⁻¹; in data set [5] (pH 5.75, 25° C.), 724000 M⁻¹ s⁻¹; in data set [5] (pH 7.2, 25° C.), 310000 M⁻¹ s⁻¹. Besides, the kd in data set [2] (pH 5.75, 25° C.) stood at 0.00173 s⁻¹; in data set [2] (pH 7.2, 25° C.), 0.000344 s⁻¹; in data set [4] (pH 5.75, 25° C.), 0.0016 s⁻¹; in data set [4] (pH 7.2, 25° C.), 0.000202 s⁻¹; in data set [5] (pH 5.75, 25° C.), 0.00619 s⁻¹; in data set [5] (pH 7.2, 25° C.), 0.00313 s⁻¹. The “RU bound at 50 nM mAb or Fab” value in data set [2] (pH 5.75, 25° C.) worked out at 33; in data set [2] (pH 7.2, 25° C.), 32. Besides, the “Response bound at 50 nM mAb or Fab (RU)” value in data set [3] (setting [8]) was 56; in data set [3] (setting [9]) it was 29. Also, the “Response bound at 50 nM mAb or Fab” value was 255 in data set [5] (pH 5.75, 25° C.) and 214 in data set [5] (pH 7.2, 25° C.).

B2: H1H283P: anti-hANGPTL4 antibody, HCVR/LCVR SEQ ID NOs 66/68 (antibody, V domains shown)
VH: EVQLVESGGGLVQPGGSLRLSCAASGFTFSSYDMHWVRQVAGKGLEWVSAIGTAGDTYYPVSVKGRFTISRENAKNSLYLHMNSLRAGDTAVYFCARGDSRNYYVGDYFDYWGQGTLVTVSS
VL: DIQMTQSPSTLSASVGDRVTITCRASQSISRWLAWYQQKPGKAPKVLIYKASNLESGVPSRFSGSGSGTEFTLTISSLQPDDFATYYCQQYNSYSRTFGQGTKVEIK
In data set [6], B2 displayed an HDL of 40.30 ± 0.72 mg/dL, an LDL of 4.62 ± 0.39 mg/dL, an NEFA-C of 1.13 ± 0.05 mg/dL and a Total-C of 75.80 ± 1.53 mg/dL. This molecule registered a Triglycerides in data set [6] of 113.60 ± 8.74 mg/dL.

B3: hANGPTL4(26-148)-mFc: amino acid residues 26-148 of human ANGPTL4 fused in-line to mouse IgG2a (SEQ ID NO:480) (protein)
chain: GPVQSKSPRFASWDEMNVLAHGLLQLGQGLREHAERTRSQLSALERRLSACGSACQGTEGSTDLPLAPESRVDPEVLHSLQTQLKAQNSRIQQLFHKVAQQQRHLEKQHLRIQHLQSQFGLLDPGSLEFALERNSGEPRGPTIKPCPPCKCPAPNLLGGPSVFIFPPKIKDVLMISLSPIVTCVVVDVSEDDPDVQISWFVNNVEVHTAQTQTHREDYNSTLRVVSALPIQHQDWMSGKEFKCKVNNKDLPAPIERTISKPKGSVRAPQVYVLPPPEEEMTKKQVTLTCMVTDFMPEDIYVEWTNNGKTELNYKNTEPVLDSDGSYFMYSKLRVEKKNWVERNSYSCSVVHEGLHNHHTTKSFSRTPGK
For the molecule B3, in data set [7] (25 μg/mouse i.v., 30 minutes post injection), the “increase of circulating triglycerides as compared to control mice (PBS)” value was “greater than two-fold”. Also, in data set [7] (25, 50, 100, 300 μg per mouse i.v., each time point post-injection), the “total cholesterol, LDL, NEFA-C and HDL across dose groups” value is reported as “not significantly different”.

B4: H1H268P Fab: Fab fragment of H1H268P prepared by papain digestion (antibody, V domains shown)
VH: QVQLQESGAGLLKPSETLSLTCTVYGGSFSIHHWTWIRHPPGKGLEWIGEINHRGSTNYNPSLKSRVTISIDTSKNQFSLKLSAVTAADTAVYYCARGLRFLDWLSSYFDYWGQGTLVTVSS
VL: DIQMTQSPSSLSASVGDRVTITCRASQGISDYLAWYQQKPGKVPNLLIYAASALQSGVPSRFSGSGSGTDFTLTISSLQPEDVATYYCQNYNTAPLTFGGGTKVEIK
For the molecule B4, the ka in data set [2] (pH 5.75, 25° C.) was 444000 M⁻¹ s⁻¹; in data set [2] (pH 7.2, 25° C.) it was 726000 M⁻¹ s⁻¹; in data set [4] (pH 5.75, 25° C.) it was 174000 M⁻¹ s⁻¹; in data set [4] (pH 7.2, 25° C.), 300000 M⁻¹ s⁻¹; in data set [5] (pH 5.75, 25° C.) it was 312000 M⁻¹ s⁻¹; in data set [5] (pH 7.2, 25° C.), 267000 M⁻¹ s⁻¹. The kd in data set [2] (pH 5.75, 25° C.) is 0.00657 s⁻¹; in data set [2] (pH 7.2, 25° C.), 0.0118 s⁻¹; in data set [4] (pH 5.75, 25° C.), 0.00304 s⁻¹; in data set [4] (pH 7.2, 25° C.), 0.000601 s⁻¹; in data set [5] (pH 5.75, 25° C.) it was 0.00432 s⁻¹; in data set [5] (pH 7.2, 25° C.), 0.00171 s⁻¹. The “RU bound at 50 nM mAb or Fab” value was found to be 10 in data set [2] (pH 5.75, 25° C.) and 13 in data set [2] (pH 7.2, 25° C.). Further, the “Response bound at 50 nM mAb or Fab (RU)” value in data set [3] (setting [8]) is reported as 20; in data set [3] (setting [9]) it was 10. Moreover, the “Response bound at 50 nM mAb or Fab” value in data set [5] (pH 5.75, 25° C.) is listed as 178; in data set [5] (pH 7.2, 25° C.), 167.
